{"source": "patent US20180009908", "proteins": {"B1": {"name": "MetMAb HC_7.8_B + MetMAb LC (IgG1) (protein)", "chain 1": "EVQLVESGGGLVQPGGSLRLSCAASGYTFTSYWLHWVRKAPGKGLEWVGMIDPSNSDTRFNPEFKDRFTISADTSKNTAYLQMNSLRAEDTAVYYCATYRSYVTPLDYWGQGTLVTVSSASTKGPSVFPLAPSSKSTSGGTAALGCLVKDYFPEPVTVSWNSGALTSGVATGPAVLQSSGLYSLSSVVTVPSSSLGTQTYICNVNHKPSNTKVDKKVEPKSCDKTHTCPPCPAPELLGGPSVFLFPPKPKDTLMISRTPEVTCVVVDVSHEDPEVKFNWYVDGVEVHNAKTKPREEQYQSTYRVVSVLTVLHQDWLNGKEYKCKVSNKALPAPIEKTISKAKGQPREPQVYTLPPSREEMTKNQVSLVCLVKGFYPSDIAVEWESNGQPENNYKTTPPVLDSDGSFFLYSVLTVDKSRWQQGNVFSCSVMHEALHNHYTQKSLSLSPGK", "chain 2": "RIQMTQSPSSLSASVGDRVTITCKSSQSLLYTSSQKNYLAWYQDKPGKAPKLLIYWASTRESGVPSRFSGSGSGTDFTLTISSLQPEDFATYYCQQYYAYPWTFGQGTKVEIKGQPKAAPSVTLFPPSSEELQANKATLVCYISDFYPGAVTVAWKADSSPVKAGVETTTPSKQSNNKYAAWSYLSLTPEQWKSHRSYSCQVTHEGSTVEKTVAPTEC"}, "B2": {"name": "MetMAb HC_7.8.60_B + MetMAb LC (IgG1) (protein)", "chain 1": "B1 chain 1 with E347R, Q349R", "chain 2": "B1 chain 2"}, "B3": {"name": "matuzumab HC_7.8.60_A + matuzumab LC (IgG1) (protein)", "chain 1": "QVQLVQSGAEVKKPGASVKVSCKASGYTFTSHWMHWVRYAPGQGLEWIGEFNPSNGRTNYNEKFKSKATMTVDTSTNTAYMELSSLRSEDTAVYYCASRDYDYDGRYFDYWGRGTLVTVSSASTKGPSVFPLAPCSKSTSGGTAALGCLVKDYFPEPVTVSWNSGALTSGVHTFPAVLQSSGLYSLSSVVTVPSSSLGTQTYICNVNHKPSNTKVDKKVEPDSGDKTHTCPPCPAPELLGGPSVFLFPPKPKDTLMISRTPEVTCVVVDVSHEDPEVKFNWYVDGVEVHNAKTKPREEQYNSTYRVVSVLTVLHQDWLNGKEYKCKVSNKALPAPIEKTISKAKGQPREPQVYTLPPSREEMTDNQVSLTCLVKGFYPSDIAVEWESNGQPENNYKTTPPVLMSDGSFFLASKLTVDKSRWQQGNVFSCSVMHEALHNHYTQKSLSLSPGK", "chain 2": "DIQMTQSPSSLSASVGDRVTITCSASSSVTYMYWYQRKPGDAPKLLIYDTSNLASGVPSRFSGSGSGTDYTFTISSLQPEDIATYYCQQWSSHIFTFGQGTKVEIKRTVAAPSVFIFPPSKEQLKSGTASVVCLLNNFYPREAKVQWKVDNALQSGNSQESVTEQDSKDSTYSLSSTLTLSKADYEKHKVYACEVTHQGLSSPVTKSFNRGEC"}, "B4": {"name": "pertuzumab HC_20.8.26_A + pertuzumab LC (IgG1) (protein)", "chain 1": "EVQLVESGGGLVQPGGSLRLSCAASGFTFTDYTMDWVRKAPGKGLEWVADVNPNSGGSIYNQEFKGRFTLSVDRSKNTLYLQMNSLRAEDTAVYYCARNLGPSFYFDYWGQGTLVTVSSASTKGPSVFPLAPSSKSTSGGTAALGCLVKDYFPEPVTVSWNSGALTSGVATGPAVLQSSGLYSLSSVVTVPSSSLGTQTYICNVNHKPSNTKVDKKVEPKSCDKTHTCPPCPAPELLGGPSVFLFPPKPKDTLMISRTPEVTCVVVDVSHEDPEVKFNWYVDGVEVHNAKTKPREEQYQSTYRVVSVLTVLHQDWLNGKEYKCKVSNKALPAPIEKTISKAKGQPREPQVSTLPPSREEMTKNQVSLMCLVYGFYPSDIAVEWESNGQPENNYKTTPPVLDSDGSFFLYSVLTVDKSRWQQGNVFSCSVMHEALHNHYTQKSLSLSPGK", "chain 2": "RIQMTQSPSSLSASVGDRVTITCKASQDVSIGVAWYQDKPGKAPKLLIYSASYRYTGVPSRFSGSGSGTDFTLTISSLQPEDFATYYCQQYYIYPYTFGQGTKVEIKGQPKAAPSVTLFPPSSEELQANKATLVCYISDFYPGAVTVAWKADSSPVKAGVETTTPSKQSNNKYAAWSYLSLTPEQWKSHRSYSCQVTHEGSTVEKTVAPTEC"}}, "key": {"[1]": {"molecular_target": "matuzumab HC_7.8_A + matuzumab LC (IgG1)", "assay": "LCMS, IgG1 BsAb co-expression in HEK293F"}, "[2]": {"molecular_target": "matuzumab HC_7.8_A + matuzumab LC (IgG1)", "assay": "LCMS, IgG1 BsAb co-expression; HCA/HCB heterodimer carrying two LC1"}, "[3]": {"molecular_target": "matuzumab HC_7.8_A + matuzumab LC (IgG1)", "assay": "LCMS, IgG1 BsAb co-expression; HCA/HCB heterodimer carrying two LC2"}, "[4]": {"assay": "LCMS, IgG1 BsAb co-expression; HCA (MetMAb) homodimer species"}, "[5]": {"molecular_target": "matuzumab HC_7.8.60_A + matuzumab LC (IgG1)", "assay": "LCMS, IgG1 BsAb co-expression in HEK293F"}, "[6]": {"molecular_target": "matuzumab HC_7.8.60_A + matuzumab LC (IgG1)", "assay": "LCMS, IgG1 BsAb co-expression; HCA/HCB heterodimer carrying two LC1"}, "[7]": {"molecular_target": "matuzumab HC_7.8.60_A + matuzumab LC (IgG1)", "assay": "LCMS, IgG1 BsAb co-expression; HCA/HCB heterodimer carrying two LC2"}, "[8]": {"assay": "LCMS, IgG1 BsAb co-expression; HCB (matuzumab) homodimer species"}, "[9]": {"molecular_target": "BHA10 HC_20.8.34_B + BHA10 LC (IgG1)", "assay": "LCMS, IgG1 BsAb co-expression in HEK293F"}, "[10]": {"molecular_target": "matuzumab HC_20.8_B + matuzumab LC (IgG1)", "assay": "LCMS, IgG1 BsAb co-expression in HEK293F"}, "[11]": {"molecular_target": "matuzumab HC_20.8.37_B + matuzumab LC (IgG1)", "assay": "LCMS, IgG1 BsAb co-expression in HEK293F"}, "[12]": {"molecular_target": "BHA10 HC_20.8_B + BHA10 LC (IgG1)", "assay": "LCMS, IgG1 BsAb co-expression in HEK293F"}, "[13]": {"molecular_target": "BHA10 HC_20.8.37_B + BHA10 LC (IgG1)", "assay": "LCMS, IgG1 BsAb co-expression in HEK293F"}, "[14]": {"molecular_target": "matuzumab HC_20.8.34_B + matuzumab LC (IgG1)", "assay": "LCMS, IgG1 BsAb co-expression in HEK293F"}, "[15]": {"molecular_target": "BHA10 HC_20.8.34_B + BHA10 LC (IgG1)", "assay": "LCMS, IgG1 BsAb co-expression; HCA/HCB heterodimer carrying two LC1"}, "[16]": {"molecular_target": "matuzumab HC_20.8_B + matuzumab LC (IgG1)", "assay": "LCMS, IgG1 BsAb co-expression; HCA/HCB heterodimer carrying two LC1"}, "[17]": {"molecular_target": "matuzumab HC_20.8.37_B + matuzumab LC (IgG1)", "assay": "LCMS, IgG1 BsAb co-expression; HCA/HCB heterodimer carrying two LC1"}, "[18]": {"molecular_target": "BHA10 HC_20.8_B + BHA10 LC (IgG1)", "assay": "LCMS, IgG1 BsAb co-expression; HCA/HCB heterodimer carrying two LC1"}, "[19]": {"molecular_target": "BHA10 HC_20.8.37_B + BHA10 LC (IgG1)", "assay": "LCMS, IgG1 BsAb co-expression; HCA/HCB heterodimer carrying two LC1"}, "[20]": {"molecular_target": "matuzumab HC_20.8.34_B + matuzumab LC (IgG1)", "assay": "LCMS, IgG1 BsAb co-expression; HCA/HCB heterodimer carrying two LC1"}, "[21]": {"molecular_target": "BHA10 HC_20.8.34_B + BHA10 LC (IgG1)", "assay": "LCMS, IgG1 BsAb co-expression; HCA/HCB heterodimer carrying two LC2"}, "[22]": {"molecular_target": "matuzumab HC_20.8_B + matuzumab LC (IgG1)", "assay": "LCMS, IgG1 BsAb co-expression; HCA/HCB heterodimer carrying two LC2"}, "[23]": {"molecular_target": "matuzumab HC_20.8.37_B + matuzumab LC (IgG1)", "assay": "LCMS, IgG1 BsAb co-expression; HCA/HCB heterodimer carrying two LC2"}, "[24]": {"molecular_target": "BHA10 HC_20.8_B + BHA10 LC (IgG1)", "assay": "LCMS, IgG1 BsAb co-expression; HCA/HCB heterodimer carrying two LC2"}, "[25]": {"molecular_target": "BHA10 HC_20.8.37_B + BHA10 LC (IgG1)", "assay": "LCMS, IgG1 BsAb co-expression; HCA/HCB heterodimer carrying two LC2"}, "[26]": {"molecular_target": "matuzumab HC_20.8.34_B + matuzumab LC (IgG1)", "assay": "LCMS, IgG1 BsAb co-expression; HCA/HCB heterodimer carrying two LC2"}}, "note": "Numbering of substitutions follows the chain as printed."}
{"protein": "B1", "values": [{"measurement": "% AB (LC1/LC2) (correct IgG BsAb assembly)", "setting": "[1]", "value": 100, "unit": "%"}, {"measurement": "% AB (2x LC1) (incorrect assembly)", "setting": "[2]", "value": 0, "unit": "%"}, {"measurement": "% AB (2x LC2) (incorrect assembly)", "setting": "[3]", "value": 0, "unit": "%"}, {"measurement": "% AA Homodimer (incorrect assembly)", "setting": "[4]", "value": 0, "unit": "%"}]}
{"protein": "B2", "values": [{"measurement": "% AB (LC1/LC2) (correct IgG BsAb assembly)", "setting": "[5]", "value": 90.8, "unit": "%"}, {"measurement": "% AB (2x LC1) (incorrect assembly)", "setting": "[6]", "value": 9.2, "unit": "%"}, {"measurement": "% AB (2x LC2) (incorrect assembly)", "setting": "[7]", "value": 0, "unit": "%"}, {"measurement": "% AA Homodimer (incorrect assembly)", "setting": "[4]", "value": 0, "unit": "%"}]}
{"protein": "B3", "values": [{"measurement": "% BB Homodimer (incorrect assembly)", "setting": "[8]", "value": 0, "unit": "%"}]}
{"protein": "B4", "values": [{"measurement": "% AB (LC1/LC2) (correct IgG BsAb assembly)", "setting": "[9]", "value": 90.3, "unit": "%"}, {"measurement": "% AB (LC1/LC2) (correct IgG BsAb assembly)", "setting": "[10]", "value": 95.2, "unit": "%"}, {"measurement": "% AB (LC1/LC2) (correct IgG BsAb assembly)", "setting": "[11]", "value": 97.6, "unit": "%"}, {"measurement": "% AB (LC1/LC2) (correct IgG BsAb assembly)", "setting": "[12]", "value": 96.9, "unit": "%"}, {"measurement": "% AB (LC1/LC2) (correct IgG BsAb assembly)", "setting": "[13]", "value": 89.6, "unit": "%"}, {"measurement": "% AB (LC1/LC2) (correct IgG BsAb assembly)", "setting": "[14]", "value": 96.9, "unit": "%"}, {"measurement": "% AB (2x LC1) (incorrect assembly)", "setting": "[15]", "value": 9.7, "unit": "%"}, {"measurement": "% AB (2x LC1) (incorrect assembly)", "setting": "[16]", "value": 0, "unit": "%"}, {"measurement": "% AB (2x LC1) (incorrect assembly)", "setting": "[17]", "value": 0, "unit": "%"}, {"measurement": "% AB (2x LC1) (incorrect assembly)", "setting": "[18]", "value": 0, "unit": "%"}, {"measurement": "% AB (2x LC1) (incorrect assembly)", "setting": "[19]", "value": 7.5, "unit": "%"}, {"measurement": "% AB (2x LC1) (incorrect assembly)", "setting": "[20]", "value": 0, "unit": "%"}, {"measurement": "% AB (2x LC2) (incorrect assembly)", "setting": "[21]", "value": 0, "unit": "%"}, {"measurement": "% AB (2x LC2) (incorrect assembly)", "setting": "[22]", "value": 0, "unit": "%"}, {"measurement": "% AB (2x LC2) (incorrect assembly)", "setting": "[23]", "value": 0, "unit": "%"}, {"measurement": "% AB (2x LC2) (incorrect assembly)", "setting": "[24]", "value": 0, "unit": "%"}, {"measurement": "% AB (2x LC2) (incorrect assembly)", "setting": "[25]", "value": 0, "unit": "%"}, {"measurement": "% AB (2x LC2) (incorrect assembly)", "setting": "[26]", "value": 0, "unit": "%"}]}
